From doi:10.1101/2020.09.22.308338 (bioRxiv, 2020)

Molecular target: stabilized homotrimeric spike protein of SARS-CoV-2 (SARS-CoV-2 (Wuhan-Hu-1 sequence, strain …, UniProt P0DTC2, stabilised))
Experiment: bead-based multiplex ACE2 competition assay

B1: nanobody NM1230 (VHH)
VHH: QVQLVESGGGLVRPGGSLRLSCVGSGFTFSGYAMNWYRQAPGKALELVAGISNAGDLTHYEEPMKGRVAISRANDKNTVYLQMDDLKPEDTAVYRCHAPGVRVGTGERKDVWGQGAQVTVSS
binding result: binds
